The text below walks through data of patent US7951914B2, “Genetically modified cyclic-nucleotide controlled ion channels” (Forschungszentrum Julich GmbH, priority 2001, dated 2011).

Assay [1] relates to endogenous phosphodiesterase (PDE). The experiment in a line: Fluorescence-optical Ca2+ measurement: phosphodiesterase inhibition with T537M cAMP sensor. The class given is cell-based, human. The conditions noted are these: IBMX 0-100 μm, then 5 μm forskolin, FIG. 5E. The source says: (§1) The excitation wavelength was 485 nm. The emission wavelength was 520 nm.
The effect of a phosphodiesterase (PDE) inhibitor on the forskolin-induced change in intracellular Ca^2+ concentration is shown. Cells which stably express the T537M mutants of the α3-CNG channel were first treated with different concentrations of the PDE inhibitor IBMX and then stimulated with 5 μm forskolin. […] The IBMX concentration was 0 μm (filled circles), 10 μm (open circles), 50 μm (filled triangles) or 100 μm (open triangles).

For assay [2], the target named is T1, Adenosine A2B receptor (Rattus norvegicus, UniProt P29276).
T1 construct: host or cells: primary rat astrocytes
T1 sequence (P29276 1-332): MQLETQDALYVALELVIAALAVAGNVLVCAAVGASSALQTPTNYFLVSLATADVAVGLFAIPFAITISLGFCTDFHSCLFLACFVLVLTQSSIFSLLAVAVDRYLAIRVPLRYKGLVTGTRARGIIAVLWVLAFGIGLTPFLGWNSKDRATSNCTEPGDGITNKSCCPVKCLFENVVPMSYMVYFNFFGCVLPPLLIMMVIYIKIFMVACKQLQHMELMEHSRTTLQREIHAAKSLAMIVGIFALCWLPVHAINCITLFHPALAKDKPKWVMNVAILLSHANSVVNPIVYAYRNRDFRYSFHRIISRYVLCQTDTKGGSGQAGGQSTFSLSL
The conditions noted are these: Peakman and Hill 1994, primary rat astrocytes; read-out: K1/2 value indicated in the literature; cited from earlier work.

Assay [3] has as its target Drosophila dopamine receptor (Drosophila melanogaster, UniProt P41596). The conditions noted are these: dopamine 25-600 nM, FIG. 5A.
Description: On the day after transfection, the cells were seeded into a multiwell plate with 96 wells. The cell density per well was 2×10^4 cells.
The fluorimetric measurements of intracellular Ca^2+ concentrations were carried out in multiwell plates with 96 wells (FIG. 5A-5G). The cells were loaded with the Ca^2+-sensitive fluorescent dye Fluo-4 one hour before the measurement. The loading solution contained 120 mM of NaCl, 3 mM of KCl, 50 mM of glucose, 10 mM of Hepes (pH 7.4), 3 mM of MgCl2 and 4 μm of Fluo4-AM (molecular probes). The measuring solution contained 120 mM of NaCl, 3 mM of KCl, 50 mM of glucose, 10 mM of Hepes (pH 7.4) and 3 mM of CaCl2. The time course of the change in fluorescence intensity after application of agonists, antagonists, enzyme activators or enzyme inhibitors was registered using a fluorescence reader (FLUOstar, BMG-Labtechnologies). The excitation wavelength was 485 nm. The emission wavelength was 520 nm.
Assay [4] has as its target T2, corticotropin-releasing factor (CRF) receptor (Rattus norvegicus, UniProt P35353).
T2 construct: expressed in transfected cells; host or cells: HEK293 stably co-expressing pcCRFR1 and bovine α3 T537M
T2 sequence (P35353 24-415): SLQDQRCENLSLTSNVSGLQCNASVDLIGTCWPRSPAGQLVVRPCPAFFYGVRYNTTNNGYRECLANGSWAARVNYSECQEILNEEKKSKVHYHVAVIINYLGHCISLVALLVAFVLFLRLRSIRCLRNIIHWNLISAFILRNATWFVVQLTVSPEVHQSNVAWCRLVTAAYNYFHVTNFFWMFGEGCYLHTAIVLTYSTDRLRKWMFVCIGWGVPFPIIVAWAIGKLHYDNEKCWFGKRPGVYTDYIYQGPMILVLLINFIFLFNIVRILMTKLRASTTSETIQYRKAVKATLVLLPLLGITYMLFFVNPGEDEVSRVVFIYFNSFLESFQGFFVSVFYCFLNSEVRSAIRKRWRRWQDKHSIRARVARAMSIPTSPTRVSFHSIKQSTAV
Description: Fluorescence-optical Ca2+ measurement: CRF receptor with T537M cAMP sensor. The conditions noted are these: agonist CRF 100-1,000 pM, FIG. 5B. The class given is cell-based. Here is the method: The CRF receptor was cloned by carrying out a PCR of primary strand cDNA of rat hypophyses, using the primers #843 (5′-[…]-3′) (SEQ ID NO 11) and #842 (5′-[…]-3′) (SEQ ID NO 12). A 100 μl PCR mixture comprised 10 ng of primary strand cDNA, 1×PCR buffer for Taq polymerase incl. 1.5 mM of MgCl2, 200 μm of dNTPs, 1 U of Taq polymerase and in each case 150 ng of the two primers. The PCR conditions were as follows. 2 minutes of denaturation at 94° C., followed by 44 cycles of in each case 45 s at 94° C., 45 s at 56° C., 75 s at 72° C. The 1271 bp fragment was cloned via BamHI and SacI in pBluescript SK^—into (pBCRFR1). […]
FIG. 5B depicts the fluorimetrically measured change in intracellular Ca^2+ concentration in cells which stably express both the corticotropin-releasing factor (CRF) receptor and the T537M mutant of the α3-CNG channel. The time course of fluorescence intensity after stimulation of the cells with the agonist CRF is shown. […]
Cells which stably express the corticotropin-releasing factor (CRF) receptor and the T537M mutants of the α3-CNG channel were treated with the helical antagonist 9-41 (Rivier J., Rivier C., and Vale W. W. (1984) Synthetic competitive antagonists of corticotropin-releasing factor: effect on ACTH secretion in the rat. Science, 224, 889-891), before being stimulated with CRF (1 nM). The time course of fluorescence intensity is shown. […]

Assay [5] relates to homooligomeric bovine α3 CNG channels. The experiment in a line: Patch clamp electrophysiology of inside-out patches: activation of heterologously expressed CNG channels by cAMP and cGMP. The class given is biochemical. The conditions noted are these: for Hill coefficient n, cAMP / Hill coefficient n, cAMP, averaged / Hill coefficient n, cGMP / Hill coefficient n, cGMP, averaged: +100 mV; for Hill coefficient n, cAMP: fit of FIG. 1B / 3B; for Hill coefficient n, cAMP, averaged / Hill coefficient n, cGMP, averaged: normalized Hill equation; for Hill coefficient n, cAMP, averaged: averaged parameters (FIG. 1C / 3C); for Hill coefficient n, cGMP: fit of FIG. 2B / 4B; for Hill coefficient n, cGMP, averaged: averaged parameters (FIG. 2C / 4C); for relative selectivity: times more selective for cAMP: quotient K1/2 cGMP / K1/2 cAMP; for relative selectivity: times more selective for cGMP: quotient of K1/2 values. The source says: For this purpose, the corresponding nucleic acids were cloned into the expression vector pcDNA3.1 (Invitrogen) (see Methods). The expression constructs were then used to transform the cells of the human embryonic kidney cell line 293 (HEK293 cells) and the corresponding proteins were functionally expressed therein either transiently or stably (see Methods). The results of the studies are depicted in FIGS. 1-4. FIGS. 1-4 B depict the dependence of the average current on the cAMP concentration and cGMP concentration, respectively, in each case in the form of a dose-response relationship. The results of these measurements were used to calculate the sensitivity of the CNG channels to cAMP and cGMP. […] EMBO J., 13, 5040-5050. For electrophysiological characterization, the cells were transferred to glass slides which had been coated with poly L-lysine, on the day after transfection. The electrophysiological studies were then carried out on the following day. […] The electrophysiological characterization of the genetically modified CNG channels was carried out using the patch clamp technique under voltage clamping conditions. […] inside-out patches were excised from cells which stably expressed genetically modified or wild-type CNG channels. The bath solution containing different concentrations of cyclic nucleotides was used to flow over the membrane patches. Starting from a holding voltage of 0 mV, sudden voltage changes were applied to different test voltages between -100 mV and +100 mV at the patch with a step width of 20 mV. The currents were registered and analyzed using standard methods.
A general note: Patch clamp records ionic current or voltage across a cell membrane.

In assay [6] the test system is α3-CNG channel. The experiment in a line: Fluorescence-optical Ca2+ measurement: cAMP sensor sensitivity of α3-CNG channel variants after adenosine stimulation. The class given is cell-based.
Description: as §1
The extent of the change in intracellular Ca^2+ concentration (fluorescence signal) was plotted as a function of time. […] Cells which stably express the T537S mutant of the α3-CNG channel were also stimulated for comparison.

The mark [7] stands for this setting: maximum stimulation with 25 μm adenosine.

Substitutions are numbered along the chain they refer to. Numbers in names are those of the source.

Chain of Drosophila dopamine receptor (P41596 20-511): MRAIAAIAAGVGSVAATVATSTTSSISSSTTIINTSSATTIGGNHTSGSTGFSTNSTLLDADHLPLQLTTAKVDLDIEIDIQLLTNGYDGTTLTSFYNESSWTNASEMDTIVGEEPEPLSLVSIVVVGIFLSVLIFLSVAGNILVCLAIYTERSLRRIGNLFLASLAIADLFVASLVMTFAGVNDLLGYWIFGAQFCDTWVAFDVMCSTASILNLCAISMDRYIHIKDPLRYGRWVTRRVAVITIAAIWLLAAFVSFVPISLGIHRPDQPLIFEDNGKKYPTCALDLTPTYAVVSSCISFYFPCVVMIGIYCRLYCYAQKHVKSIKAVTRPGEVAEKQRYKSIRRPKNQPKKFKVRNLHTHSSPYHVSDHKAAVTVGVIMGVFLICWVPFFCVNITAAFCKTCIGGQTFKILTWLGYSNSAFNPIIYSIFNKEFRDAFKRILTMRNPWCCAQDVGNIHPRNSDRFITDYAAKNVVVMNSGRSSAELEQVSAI

With `CC(C)Cn1c(=O)n(C)c(=O)c2[nH]cnc21` [IBMX], in assay [1], the “extent of the forskolin-induced change in intracellular Ca2+ concentration” value was “depend on the concentration of the PDE inhibitor”.
As for `Nc1ncnc2c1ncn2[C@@H]1O[C@H](CO)[C@@H](O)[C@H]1O` [adenosine], the EC50 in assay [2] is 5 µM.
Turning to `NCCc1ccc(O)c(O)c1` [dopamine], the “speed and extent of the change in Ca2+ concentration” value in assay [3] is “depend on the dopamine concentration”.
Take “CRF: corticotropin-releasing factor, agonist of the CRF receptor”: the “speed and extent of the change in Ca2+” value in assay [4] is listed as “depend on the CRF concentration”.

B1: T537M: bovine α3 CNG channel with methionine in place of threonine T537 (SEQ ID NO 4) (protein, UniProt Q03041 1-663, looked up, variant T537M)
Cyclic nucleotide-gated …: MTEKANGVKSSPANNHNHHAPPAIKASGKDDHRASSRPQSAAADDTSSELQQLAEMDAPQQRRGGFRRIARLVGVLREWAYRNFREEEPRPDSFLERFRGPELHTVTTQQGDGKGDKDGEGKGTKKKFELFVLDPAGDWYYRWLFLIALPVLYNWCLLVARACFSDLQKGYYIVWLVLDYVSDVVYIADLFIRLRTGFLEQGLLVKDTKKLRDNYIHTMQFKLDVASIIPTDLIYFAVGIHNPEVRFNRLLHFARMFEFFDRTETRTSYPNIFRISNLILYILIIIHWNACIYYAISKSIGFGVDTWVYPNITDPEYGYLSREYIYCLYWSTLTLTTIGETPPPVKDEEYLFVIFDFLIGVLIFATIVGNVGSMISNMNATRAEFQAKIDAVKHYMQFRKVSKEMEAKVIRWFDYLWTNKKSVDEREVLKNLPAKLRAEIAINVHLSTLKKVRIFQDCEAGLLVELVLKLRPQVFSPGDYICRKGDIGKEMYIIKEGKLAVVADDGVTQYALLSAGSCFGEISILNIKGSKMGNRRMANIRSLGYSDLFCLSKDDLMEAVTEYPDAKRVLEERGREILMKEGLLDENEVAASMEVDVQEKLEQLETNMDTLYTRFARLLAEYTGAQQKLKQRITVLETKMKQNNEDDSLSDGMNSPEPPAEKP
Regarding B1, in assay [5], the “Hill coefficient n, cAMP” value is reported as 2.4; the “Hill coefficient n, cAMP, averaged” value came out at 2.4; the “Hill coefficient n, cGMP” value amounted to 2.0; the “Hill coefficient n, cGMP, averaged” value was determined as 1.9. Further, the “relative selectivity: times more selective for cAMP” value in assay [5] is reported as “about 6 times”. For the same molecule, in assay [5] (ratio of K1/2 values), the “times less sensitive to cGMP in comparison with the T537S mutant” value turned out to be 21 times, the “times less sensitive to cGMP in comparison with the wild type” value is given as “about 9 times”, the “times more sensitive to cAMP in comparison with the T537S mutant” value is “about 5 times” and the “times more sensitive to cAMP in comparison with the wild type” value was “about 30 times”. In addition, in assay [6] (stimulation with 3 μm adenosine (about half maximum)), the “change in fluorescence signal (intracellular Ca2+)” value (shortened to “change in fluorescence signal”) is “distinct increase in the fluorescence signal”.

B2: Wild Type: wild-type α3 subunit of the bovine CNG channel (SEQ ID NO 2) (protein)
chain: B1 Cyclic nucleotide-gated … with M537T
modifications: Bovine
In the case of B2, in assay [5], the “Hill coefficient n, cAMP, averaged” value stood at 2.0; the “Hill coefficient n, cGMP, averaged” value came to 2.0; the “relative selectivity: times more selective for cGMP” value was “about 50 times”. For the same molecule, the “change in fluorescence signal” value in assay [6] (setting [7]) is “no increase in the fluorescence signal”.

B3: T537V: bovine α3 CNG channel with valine in place of threonine T537 (SEQ ID NO 6) (protein)
chain: B1 Cyclic nucleotide-gated … with M537V
modifications: Bovine
As for B3, in assay [5], the “Hill coefficient n, cAMP” value is 2.2; the “Hill coefficient n, cAMP, averaged” value was 1.5; the “Hill coefficient n, cGMP” value turned out to be 2.2; the “Hill coefficient n, cGMP, averaged” value is 2.1. Moreover, the “relative selectivity: times more selective for cAMP” value in assay [5] is “about 6 times”. For the same molecule, in assay [5] (ratio of K1/2 values), the “times less sensitive to cAMP than the T537S mutant” value was “about 2.5 times”, the “times less sensitive to cGMP in comparison with the T537S mutant” value is reported as “about 350 times”, the “times less sensitive to cGMP in comparison with the wild type” value is on record as “about 150 times” and the “times more sensitive to cAMP in comparison with the wild type” value was around 3 times.

B4: T537S: known bovine α3 CNG channel subunit in which threonine 537 is replaced with serine (protein, UniProt Q03041 1-663, looked up, variant T537S)
Cyclic nucleotide-gated …: B1 Cyclic nucleotide-gated … with M537S
On to B4, for which the “relative selectivity: times more selective for cGMP” value in assay [5] is recorded as “about 20 times”. Moreover, in assay [6] (setting [7]), the “change in fluorescence signal” value is “only a very low increase in the fluorescence signal”.
